Where a chain is given by its changes, count along the chain named.
B1: 84 (antibody, V domains shown)
VL: DIQMTQSPSSLSASVGDRVTITCRASENIYRNLAWYQQKPGKAPKLLLYAATNLADGVPSRFSGSGSGTDYTLTISSLQSEDFATYYCQHFWGTPWTFGQGTKVEIK
VH: QVQLVQSGSELKKPGASVKVSCKASGYTFTDYSMHWVRQAPGQGLEWMGWINTETGEPTYADDFKGRFVFSLDTSVSTAYLQISSLKAEDTAVYYCARIPLYYYGSRYWYFDVWGQGTTVTVSS
modifications: constant regions without entry; synthetic humanized antibody light chain variable region sequence; synthetic humanized antibody heavy chain variable region sequence
B2: 90 (antibody, V domains shown)
VL: B1 VL with K45Q, S80P
VH: B1 VH
modifications: constant regions without entry; synthetic humanized antibody light chain variable region sequence; synthetic humanized antibody heavy chain variable region sequence
B3: 85 (antibody, V domains shown)
VL: B1 VL
VH: B1 VH with E46K
modifications: constant regions without entry; synthetic humanized antibody light chain variable region sequence; synthetic humanized antibody heavy chain variable region sequence
B4: 87 (antibody, V domains shown)
VL: B1 VL with K45Q, S80P
VH: B1 VH with D62Q, D63G, K65T
modifications: constant regions without entry; synthetic humanized antibody light chain variable region sequence; synthetic humanized antibody heavy chain variable region sequence
B5: 89 (antibody, V domains shown)
VL: B1 VL with K45Q, S80P
VH: B1 VH with V2I, E46K, D62Q, D63G, K65T
modifications: constant regions without entry; synthetic humanized antibody light chain variable region sequence; synthetic humanized antibody heavy chain variable region sequence
B6: 86 (antibody, V domains shown)
VL: B1 VL
VH: B1 VH with V2I, E46K
modifications: constant regions without entry; synthetic humanized antibody light chain variable region sequence; synthetic humanized antibody heavy chain variable region sequence
B7: 91 (antibody, V domains shown)
VL: B1 VL with K45Q, S80P
VH: B1 VH with E46K
modifications: constant regions without entry; synthetic humanized antibody light chain variable region sequence; synthetic humanized antibody heavy chain variable region sequence
B8: 88 (antibody, V domains shown)
VL: B1 VL with K45Q, S80P
VH: B1 VH with E46K, D62Q, D63G, K65T
modifications: constant regions without entry; synthetic humanized antibody light chain variable region sequence; synthetic humanized antibody heavy chain variable region sequence

Legend:
human EphA4 = molecular target: T1, human EphA4 (Homo sapiens, UniProt P54764); assay: Affinity of humanized antibodies by SPR (Biacore T200); type: binding; settings: human EphA4 extracellular region-SEAP-His; for ka / kd: 1:1 binding model; for Kd: KD=kd/ka
T1 construct: made in house; not restated for the human SEAP-His protein
Experimental: The binding affinity of each anti-EphA4 monoclonal humanized antibody obtained in Example 16 for human EphA4 was determined by surface plasmon resonance (SPR) using Biacore T200 (GE Healthcare). First, for the assay of antibody A, a rat anti-mouse IgG1 antibody produced with a conventional method by immunizing rat with mouse IgG1 antibody was immobilized on sensor chip CM5. The immobilization of the rat anti-mouse IgG1 antibody on sensor chip CM5 was performed by the amine coupling method using N-hydroxysuccinimide (NHS) and N-ethyl-N′-(3-dimethylaminopropyl)carbodiimide hydrochloride (EDC). Ethanolamine was used in blocking (the sensor chip and the reagents for immobilization were all manufactured by GE Healthcare). The antibody was diluted with a buffer solution for immobilization (10 mM sodium acetate, pH 4.5) and immobilized on the sensor chip according to the protocol attached to Biacore T200. For the assay of each humanized monoclonal antibody, a protein A chip (GE Healthcare, 29-1383-03) was used. Antibody A or the humanized monoclonal antibody was diluted with a running buffer solution HBS-EP (GE Healthcare), injected onto only flow cell 2 for 120 seconds, and captured (captured amount: approximately 30 to 60 RU). Subsequently, human EphA4 extracellular region-SEAP-His protein serially diluted in the range of 50, 16.7, 5.6, 1.9, and 0.6 nM using HBS-EP was sequentially added from the lower toward higher concentration sides without regeneration operation. Binding reaction curves were sequentially observed at the time of the addition (association phase, for 120 sec) and after the completion of the addition (dissociation phase, for 900 sec). After the completion of each observation, the sensor chip was regenerated by the addition of 3 M MgCl2 (for 60 sec) or 10 mM Glycine-HCl pH 1.5 (for 30 sec). The obtained binding reaction curves were subjected to fitting analysis with 1:1 binding models using software BIA evaluation attached to the system to calculate the affinity (KD=kd/ka) for human EphA4 (Table 6).

[1] = molecular target: T2, human EphA4 (binding to human Ephrin A5) (Homo sapiens, UniProt P54764); assay: Human EphA4-human ligand binding inhibition ELISA of humanized antibodies (biotinylated Ephrin A5-Fc); settings: biotinylated human Ephrin A5-Fc 0.7 nM
T2 construct: made in house; not restated for the human SEAP-His protein
Experimental: Each anti-EphA4 monoclonal humanized antibody obtained in Example 16 was evaluated for its inhibitory activity against the binding between human EphA4 and its human ligand according to the following steps. Each well of a 96-well plate (Nunc) was coated with an anti-alkaline phosphatase antibody (Thermo Fisher Scientific). After incubation overnight at 4° C., each well was blocked with 1% BlockAce (DS Pharma Biomedical) at room temperature for 1 hour. After washing with 0.05% Tween 20/PBS (Thermo Fisher Scientific) three times, the human EphA4 extracellular region-SEAP-His protein obtained by the method of Example 2 was added (final concentration: 10 nM) to each well and incubated at room temperature for 1 hour. After washing three times, a ligand and each serially diluted humanized antibody of antibody A (0, 0.003, 0.01, 0.03, 0.1, 0.3, 1, 3, 10, 30, 100, 300, 1000, and 3000 nM) were added to each well. The ligand used was biotinylated human Ephrin A5-Fc chimera (R&D Systems, final concentration: 0.7 nM). After incubation at room temperature for 1 hour and subsequent washing three times, horseradish peroxidase-labeled streptavidin (GE Healthcare) was added thereto and incubated at room temperature for 1 hour. After washing three times, a TMBZ (3,3′,5,5′-tetramethylbenzidine, Sigma-Aldrich) solution was added to each well and incubated at room temperature for 2 minutes. An equal amount of a reaction stopping solution (1N H2SO4, Wako Pure Chemical Industries) was added to each well. The absorbance at 450 nm was read using a microplate reader (PerkinElmer).

human EphA5 = molecular target: T3, human EphA5 (Homo sapiens, UniProt P54756); assay: Selectivity ELISA of humanized antibodies for human Eph receptor; type: binding; settings: coated protein 1 nM
T3 construct: a protein of the extracellular region of each human Eph receptor fused with the SEAP protein and the His tag; made in house; host or cells: Expi293F cells (culture supernatant)
Excerpt: According to the method described in Example 7, a DNA sequence encoding the signal sequence and the extracellular region of each human Eph receptor (EphA1, EphA2, EphA3, EphA4, EphA5, EphA6, EphA7, EphA8, EphA10, EphB1, EphB2, EphB3, EphB4, and EphB6) was amplified by RT-PCR using tissue-derived total RNA and cloned into a pENTR1A vector (Invitrogen/Life Technologies) having a DNA sequence encoding SEAP protein and histidine tag. Next, the DNA sequence encoding the signal sequence and the extracellular region of each human Eph receptor, SEAP protein, and histidine tag was transferred to a pcDNA3.1_rfcB vector through LR reaction using Gateway System (Invitrogen/Life Technologies) to construct a vector for the expression of a protein of the extracellular region of each human Eph receptor fused with the SEAP protein and the His tag (referred to as “Eph receptor extracellular region-SEAP-His protein”) (this vector is referred to as “Eph receptor extracellular region-SEAP-His protein expression vector”).
Next, each human Eph receptor extracellular region-SEAP-His protein expression vector was transferred to Expi293F cells (Gibco/Thermo Fisher Scientific) using Expi293 expression system (Gibco/Thermo Fisher Scientific). After incubation (5% CO2, 37° C.) for 5 days, the culture supernatant was recovered and centrifuged at 1500 rpm at room temperature for 5 minutes. The centrifugation supernatant was filtered through a 0.45-μm filter (Merck Millipore).
Each anti-EphA4 monoclonal humanized antibody obtained in Example 16 was evaluated for its binding activity against each human Eph receptor according to the following steps.
Each well of a 96-well plate (Nunc) was coated with a rabbit anti-6-His antibody (Bethyl Laboratories). Each well was […] After washing with 0.05% Tween 20/PBS (Nacalai Tesque) three times, the SEAP-His protein of human EphA1, EphA2, EphA3, EphA4, EphA5, EphA6, EphA7, EphA8, EphA10, EphB1, EphB2, EphB3, EphB4, or EphB6 was added (final concentration: 1 nM) to each well and incubated at room temperature for 1 hour. After washing three times, the humanized antibody was added to each well and incubated at room temperature for 1 hour. After washing three times, a horseradish peroxidase-labeled donkey […] IgG antibody (Jackson ImmunoResearch Laboratories) was added thereto and incubated at room temperature for 1 hour. After washing three times, TMB Microwell Peroxidase Substrate System (Kirkegaard & Perry Laboratories (KPL)) was added to each well. After confirmation of moderate color development, an equal amount of a reaction stopping solution (1N H2SO4, Wako Pure Chemical Industries) was added to each well. The absorbance at 450 nm was read using a microplate reader (Thermo Fisher Scientific).

T3 sequence (P54756 25-573 limits assumed): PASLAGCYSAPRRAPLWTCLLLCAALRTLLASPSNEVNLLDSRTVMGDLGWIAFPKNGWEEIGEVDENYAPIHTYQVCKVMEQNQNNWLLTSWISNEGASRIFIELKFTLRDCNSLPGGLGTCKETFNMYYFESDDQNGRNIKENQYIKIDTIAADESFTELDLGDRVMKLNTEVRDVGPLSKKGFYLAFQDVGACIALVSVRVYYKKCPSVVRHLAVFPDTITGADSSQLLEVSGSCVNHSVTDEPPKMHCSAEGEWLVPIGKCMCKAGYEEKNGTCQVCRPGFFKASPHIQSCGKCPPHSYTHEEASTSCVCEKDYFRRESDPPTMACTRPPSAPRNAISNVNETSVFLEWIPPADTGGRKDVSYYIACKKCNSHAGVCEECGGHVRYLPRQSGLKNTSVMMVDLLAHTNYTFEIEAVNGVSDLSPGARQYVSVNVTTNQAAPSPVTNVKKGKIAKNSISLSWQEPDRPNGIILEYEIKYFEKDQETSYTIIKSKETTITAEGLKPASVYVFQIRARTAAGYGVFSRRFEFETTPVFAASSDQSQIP
T1 sequence (P54764 20-547): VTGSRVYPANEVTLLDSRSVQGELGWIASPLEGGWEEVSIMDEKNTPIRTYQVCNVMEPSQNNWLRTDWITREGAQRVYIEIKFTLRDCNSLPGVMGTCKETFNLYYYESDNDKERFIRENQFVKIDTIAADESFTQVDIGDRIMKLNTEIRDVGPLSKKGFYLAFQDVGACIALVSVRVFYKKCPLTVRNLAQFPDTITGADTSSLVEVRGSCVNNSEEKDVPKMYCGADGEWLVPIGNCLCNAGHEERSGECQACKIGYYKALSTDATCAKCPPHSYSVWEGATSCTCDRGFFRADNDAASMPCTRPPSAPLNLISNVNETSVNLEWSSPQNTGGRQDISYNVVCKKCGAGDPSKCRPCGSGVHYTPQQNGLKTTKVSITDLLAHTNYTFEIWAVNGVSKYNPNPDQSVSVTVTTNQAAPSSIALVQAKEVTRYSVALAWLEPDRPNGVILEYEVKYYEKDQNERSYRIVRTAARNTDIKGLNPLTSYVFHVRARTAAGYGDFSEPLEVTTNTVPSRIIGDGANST
T2 sequence (P54764 20-547): as above

Molecule | ka (human EphA4) | kd (human EphA4) | Kd (human EphA4) | IC50 [1] | hEphA5-SEAP-: absorbance at 450 nm, percentage with respect to hEphA4-SEAP-His as 100% (human EphA5)
B1 | 350000 M⁻¹ s⁻¹ | 0.00056 s⁻¹ | 1.7 nM | 4.6 nM | 5.0%
B2 | 360000 M⁻¹ s⁻¹ | 0.00055 s⁻¹ | 1.5 nM | 4.5 nM | 5.1%
B3 | 310000 M⁻¹ s⁻¹ | 0.0005 s⁻¹ | 1.6 nM | 4 nM | 5.0%
B4 | 350000 M⁻¹ s⁻¹ | 0.00051 s⁻¹ | 1.5 nM | 3 nM | 5.4%
B5 | 310000 M⁻¹ s⁻¹ | 0.00041 s⁻¹ | 1.3 nM | 4.3 nM | 5.8%
B6 | 310000 M⁻¹ s⁻¹ | 0.00046 s⁻¹ | 1.5 nM | 4 nM | 5.7%
B7 | 330000 M⁻¹ s⁻¹ | 0.00044 s⁻¹ | 1.3 nM | 4.9 nM | 6.4%
B8 | 300000 M⁻¹ s⁻¹ | 0.00042 s⁻¹ | 1.4 nM | 3.6 nM | 5.9%

Source: patent US10428140B2, “Anti-EphA4 antibody” (EISAI R&D MANAGEMENT CO., LTD., priority 2015, dated 2019)
